In patent US20260273048A1, “METHODS OF IMPROVING TRANSPLANT SURVIVAL USING IL-2 RECEPTOR GAMMA CHAIN ANTIBODIES” (Regeneron Pharmaceuticals, Inc., priority 2023, published 2026):

Tests used:
[1] = test system: BALB/cJ tail skin graft on VG mice humanized for IL2RG; test: In vivo skin graft rejection model, REGN7257 with MMF (Example 4); parameters: species or system mouse; conditions: REGN7257 25 mg/kg s.c. 2 times per week from 2 days prior to transplant; MMF 100 mg/kg i.p. daily from day of transplant; until rejection; FIG. 9
Source text: (§1) BALB/cJ mice obtained from The Jackson Laboratory (Bar Harbor, ME) were used as skin graft donors, and MHC mismatched Velocigene® (VG) background mice (C57BL/6NTac (75%)/129S6SvEvTac (25%)) from the Regeneron Velocigene® breeding colony that were genetically modified to replace the endogenous IL2RG ectodomain with the corresponding human sequences were used as recipients. The skin graft was obtained from the tail of the donor mice. The skin was the peeled off using forceps and punched with a 10 mm diameter biopsy punch.
REGN7257 was administered subcutaneously at doses of 25 mg/kg at a frequency of 2 times per week starting 2 days prior to transplant, and continuing until rejection. MMF was administered intraperitoneally daily at a dose 100 mg/kg starting on the day of transplant, and continuing until rejection. Recipients with the surgical site shaved were anesthetized by isoflurane via a nose cone and administered an analgesic (buprenorphine-sustained release) (ZooPharm). The shaved dorsal area was swabbed with applications of povidone-iodine and alcohol. The graft bed was created midway laterally between the dorsal and ventral sides of the mouse by pinching skin with forceps followed by skin excision utilizing a sterile 10 mm diameter biopsy skin punch. […]

[2] = test system: BALB/cJ tail skin graft on VG mice humanized for IL2RG; test: In vivo skin graft rejection model, REGN7257 monotherapy (Example 1); parameters: species or system mouse; conditions: 25 mg/kg s.c. 2 times per week starting 3 weeks prior to transplant until rejection
Source text: as §1
As detailed in Table 2 below, VG mice (humanized for IL2RG), used as graft recipients, were administered no treatment (negative control), an isotype control (REGN1945), or REGN7257 subcutaneously at doses 25 mg/kg at a frequency of 2 times per week starting 3 weeks prior to transplant, and continuing until rejection (FIG. 1). […]
These grafts will display scabbing and contraction several […] from bandage removal. […] The complete rejection timepoint is recorded as the first day where 100% of the graft tissue was necrotic. Rejection onset was recorded as the first day where there were signs of rejection (i.e., redness). Significance was determined by Log-rank (Mantel-Cox) test with Bonferroni correction (adjusted p value 0.00555, K=9).

[3] = test system: donor-specific antibodies (total IgG binding to CT26.WT cells); test: Detection of donor specific antibodies by flow cytometry (Example 1); format: in vivo, mouse; conditions: blood sampled day 56 post-transplant; MFI at 1/512 serum dilution; FIG. 3
Method: Detection of donor specific antibodies by flow cytometry: Blood was sampled at the day 56 post-transplant timepoint to assess formation of donor-specific antibodies. CT26.WT (ATCC® CRL-2638™) cells were cultured in tissue culture flasks to 80% confluent. Cells were washed with 1×DPBS and dissociated with TrypLE Express reagent (Gibco) by incubating at room temperature for 5 minutes and washing flask with complete RPMI 1640 media. Cells were then centrifuged (500 g, 10 minutes), and resuspended at 5 million cells/ml with 1×DPBS with 1:50 dilution of 4 μg/mL of Fc block (Tonbo) for 15 minutes at room temperature. The suspension was plated at 250,000 cells/well (50 μL) in a 384 well V-bottom plate.
50 μL of serially diluted sample serum from transplanted mice and from non-engrafted wild type VG mouse (C57BL/6NTac (75%)/129S6SvEvTac (25%)) and wild type BALB/cJ mouse obtained from The Jackson Laboratory was added to its respective well and incubated at 37° C. for 45 minutes. Following 2 washes with MACS buffer (500 g, 4 minutes), the cells were resuspended in 50 μL of LIVE/DEAD™ Fixable Blue Dead Cell Stain Kit (Invitrogen) diluted 1:500 in 1×DPBS at 50 μL total volume per well and incubated at room temperature for 15 minutes. […] Acquired events were analyzed with FlowJo (BD). […]

[4] = test system: BALB/cJ tail skin graft on VG mice humanized for IL2RG; test: In vivo skin graft rejection model, REGN7257 induction with abatacept maintenance (Example 2); parameters: species or system mouse; conditions: induction: 2 doses 25 mg/kg s.c. (2 days prior and day of transplant); maintenance: 25 mg/kg s.c. 2 times per week from day of transplant until rejection; FIG. 5
Method: (2) “Scabbing” and contraction of the graft at later times was used as indicators of graft rejection. The complete rejection timepoint is recorded as the first day where 100% of the graft tissue was necrotic. Significance was determined by Log-rank (Mantel-Cox) test with Bonferroni correction (α=0.005, k=10).

In the case of `COc1c(C)c2c(c(O)c1C/C=C(\C)CCC(=O)OCCN1CCOCC1)C(=O)OC2` [MMF, mycophenolate mofetil, reference compound], the “Median Survival Time [MST] of skin graft” value [1] is reported as 10.

B1: REGN7257: fully human IL-2Rγ antibody comprising the HCVR of SEQ ID NO: 1 and the LCVR of SEQ ID NO:5 (antibody, V domains shown)
VH: EVQLVESGGGLVQPGGSLRLSCAASGFIFSSYEMHWVRQAPGKGLEWISYISSSGTTIYYADSVKGRFTISRDNAKNSLYLHMNSLRAEDTAVYYCTRARITGTFDVFDIWGQGTMVTVSS
VL: DIQMTQSPSSLSASVGDRVTITCRASQSISSYLNWYQQKPGKAPKLLIFAASNLQSGVPSRFSGSRSGTDFTLTISSLQPEDFATYYCQQNYNIPYTFGQGTKLEIK
With B1 the “overall skin graft survival (time to complete rejection)” value ([2]; FIG. 2B) was “improved”, the “onset of skin graft rejection” value ([2]; vs no mAb and isotype control, FIG. 2A) was “delayed” and the “generation of donor-specific antibodies” value [3] was “prevented”. For the same molecule, the “skin graft median survival time [MST] (time to complete skin graft rejection)” value [4] was 11 days and the “Median Survival Time [MST] of skin graft” value [1] was 12.
